Test results reported in article PMC8441738 (MedComm, 2021).

B1: MA1 monoclonal antibody (antibody, V domains shown)
VH: QVQLKESGPGLVAPSQSLSITCTVSGFSLSDYSISWIRQPPGKGLEWLGVIWGGGSTYYNSALKSRLSISKDNSKSQVFLKMNSLQTDDTAMYYCAKHPLYYGSNSDGYYAMDYWGQGTSVTVSS
VL: DIVMTQSHKFMSTSVGDRVSITCKASQDVGIVVAWYQQKPGQSPKLLIYWASTRHTGVPDRFTGSGSGTDFTLTISNVQSEDLADYFCQQYSSYPLTFGGGTKLEIK
notes: also called group I mAb; source: hybridoma cell line or transfection of linear expression cassettes
B2: MA1scFv (scFv, V domains shown)
VH: B1 VH
VL: B1 VL

What was measured:
[1] = molecular target: T1, SARS-CoV-2 RBD (residues Arg319-Phe541), His-tagged (SARS-CoV-2, UniProt P0DTC2); assay: SPR; details: both partners purified
[2] = molecular target: T1, SARS-CoV-2 RBD (residues …); assay: cryo-EM structure; details: both partners purified

Binder	binding result [1]	binding result [2]
B1	binds	–
B2	–	binds
